Measurements taken from publication PMC2756588.

T1: Abp1, P15891
T1 sequence (P15891 535-592, looked up): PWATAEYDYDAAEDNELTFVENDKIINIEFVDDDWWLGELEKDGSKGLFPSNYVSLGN

T2: Bbc1, P47068
T2 sequence (P47068 1-78, looked up): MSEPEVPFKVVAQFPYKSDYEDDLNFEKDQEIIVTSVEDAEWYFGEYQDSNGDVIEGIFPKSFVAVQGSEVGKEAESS

T3: Boi1, P38041
T3 sequence (P38041 1-86, looked up): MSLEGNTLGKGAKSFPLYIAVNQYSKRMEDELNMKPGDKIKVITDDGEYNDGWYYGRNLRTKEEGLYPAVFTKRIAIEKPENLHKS

T4: Boi2, P39969
T4 sequence (P39969 32-116, looked up): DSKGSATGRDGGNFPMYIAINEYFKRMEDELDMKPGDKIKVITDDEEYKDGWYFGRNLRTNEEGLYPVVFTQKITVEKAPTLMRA

T5: Bud14, P27637
T5 sequence (P27637 247-328, looked up): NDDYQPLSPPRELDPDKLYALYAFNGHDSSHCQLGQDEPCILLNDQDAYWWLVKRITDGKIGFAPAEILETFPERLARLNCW

T6: Bzz1-1, P38822
T6 sequence (P38822 478-572, looked up): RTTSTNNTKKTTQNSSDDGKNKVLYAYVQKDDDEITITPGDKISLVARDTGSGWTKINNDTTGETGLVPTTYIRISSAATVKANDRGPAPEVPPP

T7: Bzz1-2, P38822
T7 sequence (P38822 568-633, looked up): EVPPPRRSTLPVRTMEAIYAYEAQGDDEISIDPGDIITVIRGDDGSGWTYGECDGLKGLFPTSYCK

T8: Cdc25, P04821
T8 sequence (P04821 50-136, looked up): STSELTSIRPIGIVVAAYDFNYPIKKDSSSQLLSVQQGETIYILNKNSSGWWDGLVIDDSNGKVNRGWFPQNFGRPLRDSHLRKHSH

T9: Cyk3, Q07533
T9 sequence (Q07533 1-83, looked up): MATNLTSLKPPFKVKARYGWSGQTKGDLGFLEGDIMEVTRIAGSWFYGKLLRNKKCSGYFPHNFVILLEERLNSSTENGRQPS

T10: Fus1, P11710
T10 sequence (P11710 432-512, looked up): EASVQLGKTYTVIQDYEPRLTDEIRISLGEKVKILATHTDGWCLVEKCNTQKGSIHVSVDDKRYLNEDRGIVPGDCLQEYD

T11: Hof1, Q05080
T11 sequence (Q05080 590-669, looked up): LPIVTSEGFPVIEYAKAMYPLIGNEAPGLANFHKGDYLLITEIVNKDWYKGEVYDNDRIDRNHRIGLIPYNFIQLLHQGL

T12: Hse1, P38753
T12 sequence (P38753 208-285, looked up): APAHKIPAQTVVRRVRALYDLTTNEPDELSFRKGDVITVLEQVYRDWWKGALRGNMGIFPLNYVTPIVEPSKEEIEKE

T13: Lsb1, P53281
T13 sequence (P53281 45-122, looked up): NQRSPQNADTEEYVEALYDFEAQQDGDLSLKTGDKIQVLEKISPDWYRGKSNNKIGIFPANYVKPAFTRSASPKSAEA

T14: Lsb3, P43603
T14 sequence (P43603 385-451, looked up): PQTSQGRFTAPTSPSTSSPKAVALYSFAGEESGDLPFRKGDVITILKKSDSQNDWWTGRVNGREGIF

T15: Lsb4, P32793
T15 sequence (P32793 402-468, looked up): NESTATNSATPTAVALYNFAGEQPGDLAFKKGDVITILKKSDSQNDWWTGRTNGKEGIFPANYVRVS

T16: Myo5, Q04439
T16 sequence (Q04439 1072-1160, looked up): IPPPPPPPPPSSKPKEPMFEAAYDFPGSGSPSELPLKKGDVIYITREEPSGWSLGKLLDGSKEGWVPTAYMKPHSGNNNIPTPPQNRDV

T17: Nbp2, Q12163
T17 sequence (Q12163 103-180, looked up): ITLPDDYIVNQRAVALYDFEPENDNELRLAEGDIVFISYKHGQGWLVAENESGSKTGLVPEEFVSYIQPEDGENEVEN

T18: Pex13, P80667
T18 sequence (P80667 295-386, looked up): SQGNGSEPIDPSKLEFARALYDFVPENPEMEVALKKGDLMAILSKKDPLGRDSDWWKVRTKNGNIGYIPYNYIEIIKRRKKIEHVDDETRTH

T19: Pin3, Q06449
T19 sequence (Q06449 53-122, looked up): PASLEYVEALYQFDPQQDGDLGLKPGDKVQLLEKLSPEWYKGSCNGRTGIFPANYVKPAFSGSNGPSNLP

T20: Sla1-2, P32790
T20 sequence (P32790 60-140, looked up): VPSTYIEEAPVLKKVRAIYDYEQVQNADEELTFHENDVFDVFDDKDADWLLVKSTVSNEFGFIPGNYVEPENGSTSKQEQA

T21: Sla1-3, P32790
T21 sequence (P32790 344-424, looked up): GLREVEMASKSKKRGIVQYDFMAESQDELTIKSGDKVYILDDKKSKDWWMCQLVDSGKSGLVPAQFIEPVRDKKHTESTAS


target: T1, Abp1, P15891; assay: SPOT array; details: median of control spots 935

SPOT intensity | Binder
182 | ATKSASPTLPTRRSR
128 | TSFKGRPKPPKTLKH
16 | QNTPPLPPKPKSPHL

target: T2, Bbc1, P47068; assay: SPOT array; details: median of control spots 796

SPOT intensity | Binder
79 | ATKSASPTLPTRRSR
5 | TSFKGRPKPPKTLKH
0 | QNTPPLPPKPKSPHL

target: Bem1-1, P29366; assay: SPOT array; details: median of control spots 4282
Sequence (P29366 55-141): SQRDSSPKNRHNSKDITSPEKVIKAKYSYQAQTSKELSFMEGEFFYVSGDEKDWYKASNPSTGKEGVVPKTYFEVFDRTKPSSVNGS

SPOT intensity | Binder
3 | ATKSASPTLPTRRSR
0 | TSFKGRPKPPKTLKH
0 | QNTPPLPPKPKSPHL

target: Bem1-2, P29366; assay: SPOT array; details: median of control spots 4347
Sequence (P29366 139-227): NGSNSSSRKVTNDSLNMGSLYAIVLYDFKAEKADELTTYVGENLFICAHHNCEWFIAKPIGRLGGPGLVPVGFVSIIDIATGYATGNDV

SPOT intensity | Binder
18 | ATKSASPTLPTRRSR
0 | TSFKGRPKPPKTLKH
16 | QNTPPLPPKPKSPHL

target: T3, Boi1, P38041; assay: SPOT array; details: median of control spots 1162

SPOT intensity | Binder
3 | ATKSASPTLPTRRSR
1 | TSFKGRPKPPKTLKH
3 | QNTPPLPPKPKSPHL

target: T4, Boi2, P39969; assay: SPOT array; details: median of control spots 1161

SPOT intensity | Binder
0 | ATKSASPTLPTRRSR
0 | TSFKGRPKPPKTLKH
0 | QNTPPLPPKPKSPHL

target: T5, Bud14, P27637; assay: SPOT array; details: median of control spots 956

SPOT intensity | Binder
8 | ATKSASPTLPTRRSR
1 | TSFKGRPKPPKTLKH
0 | QNTPPLPPKPKSPHL

target: T6, Bzz1-1, P38822; assay: SPOT array; details: median of control spots 4446

SPOT intensity | Binder
3 | ATKSASPTLPTRRSR
0 | TSFKGRPKPPKTLKH
0 | QNTPPLPPKPKSPHL

target: T7, Bzz1-2, P38822; assay: SPOT array; details: median of control spots 4538

SPOT intensity | Binder
1 | ATKSASPTLPTRRSR
11 | TSFKGRPKPPKTLKH
2 | QNTPPLPPKPKSPHL

target: T8, Cdc25, P04821; assay: SPOT array; details: median of control spots 969

SPOT intensity | Binder
22 | ATKSASPTLPTRRSR
2 | TSFKGRPKPPKTLKH
0 | QNTPPLPPKPKSPHL

target: T9, Cyk3, Q07533; assay: SPOT array; details: median of control spots 1451

SPOT intensity | Binder
1 | ATKSASPTLPTRRSR
2 | TSFKGRPKPPKTLKH
0 | QNTPPLPPKPKSPHL

target: T10, Fus1, P11710; assay: SPOT array; details: median of control spots 1200

SPOT intensity | Binder
2 | ATKSASPTLPTRRSR
1 | TSFKGRPKPPKTLKH
0 | QNTPPLPPKPKSPHL

target: GST; assay: SPOT array; details: median of control spots 978

SPOT intensity | Binder
1 | ATKSASPTLPTRRSR
0 | TSFKGRPKPPKTLKH
2 | QNTPPLPPKPKSPHL

target: T11, Hof1, Q05080; assay: SPOT array; details: median of control spots 4086

SPOT intensity | Binder
0 | ATKSASPTLPTRRSR
1 | TSFKGRPKPPKTLKH
1320 | QNTPPLPPKPKSPHL

target: T12, Hse1, P38753; assay: SPOT array; details: median of control spots 1727

SPOT intensity | Binder
2 | ATKSASPTLPTRRSR
2 | TSFKGRPKPPKTLKH
634 | QNTPPLPPKPKSPHL

target: T13, Lsb1, P53281; assay: SPOT array; details: median of control spots 388

SPOT intensity | Binder
56 | ATKSASPTLPTRRSR
0 | TSFKGRPKPPKTLKH
0 | QNTPPLPPKPKSPHL

target: T14, Lsb3, P43603; assay: SPOT array; details: median of control spots 406

SPOT intensity | Binder
834 | ATKSASPTLPTRRSR
0 | TSFKGRPKPPKTLKH
249 | QNTPPLPPKPKSPHL

target: T15, Lsb4, P32793; assay: SPOT array; details: median of control spots 397

SPOT intensity | Binder
1180 | ATKSASPTLPTRRSR
0 | TSFKGRPKPPKTLKH
231 | QNTPPLPPKPKSPHL

target: Myo3, P36006; assay: SPOT array; details: median of control spots 468

SPOT intensity | Binder
12 | ATKSASPTLPTRRSR
0 | TSFKGRPKPPKTLKH
0 | QNTPPLPPKPKSPHL

target: T16, Myo5, Q04439; assay: SPOT array; details: median of control spots 471

SPOT intensity | Binder
0 | ATKSASPTLPTRRSR
0 | TSFKGRPKPPKTLKH
0 | QNTPPLPPKPKSPHL

target: T17, Nbp2, Q12163; assay: SPOT array; details: median of control spots 357

SPOT intensity | Binder
2 | ATKSASPTLPTRRSR
0 | TSFKGRPKPPKTLKH
1 | QNTPPLPPKPKSPHL

target: T18, Pex13, P80667; assay: SPOT array; details: median of control spots 1341

SPOT intensity | Binder
249 | ATKSASPTLPTRRSR
3 | TSFKGRPKPPKTLKH
309 | QNTPPLPPKPKSPHL

target: T19, Pin3, Q06449; assay: SPOT array; details: median of control spots 2171

SPOT intensity | Binder
20 | ATKSASPTLPTRRSR
4 | TSFKGRPKPPKTLKH
0 | QNTPPLPPKPKSPHL

target: Rvs167, P39743; assay: SPOT array; details: median of control spots 2707
Sequence (P39743 419-482): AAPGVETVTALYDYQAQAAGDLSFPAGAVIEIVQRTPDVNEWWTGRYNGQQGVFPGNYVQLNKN

SPOT intensity | Binder
1540 | ATKSASPTLPTRRSR
0 | TSFKGRPKPPKTLKH
8 | QNTPPLPPKPKSPHL

target: Sho1, P40073; assay: SPOT array; details: median of control spots 1148
Sequence (P40073 287-367): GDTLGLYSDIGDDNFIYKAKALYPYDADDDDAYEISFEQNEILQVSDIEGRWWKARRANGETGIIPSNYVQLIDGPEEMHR

SPOT intensity | Binder
132 | ATKSASPTLPTRRSR
43 | TSFKGRPKPPKTLKH
72 | QNTPPLPPKPKSPHL

target: T20, Sla1-2, P32790; assay: SPOT array; details: median of control spots 712

SPOT intensity | Binder
8 | ATKSASPTLPTRRSR
0 | TSFKGRPKPPKTLKH
1 | QNTPPLPPKPKSPHL

target: T21, Sla1-3, P32790; assay: SPOT array; details: median of control spots 5475

SPOT intensity | Binder
1 | ATKSASPTLPTRRSR
2 | TSFKGRPKPPKTLKH
0 | QNTPPLPPKPKSPHL
